The results in this text go back to PMC10592267.

This experiment concerns the target poplar cellulose synthase isoform-8 (CesA8) from hybrid aspen (hybrid aspen (poplar)). The experiment is described as follows: cryo-EM structure; purified CesA8 in 0.02% GDN, incubated with 20 mM MgCl2 and 5 mM UDP or UDP-Glc for 30 min on ice before grid preparation; non-uniform refinement with C3 symmetry.

One may read the stoichiometry N as a count of units in the complex or per binding partner. For “poplar cellulose synthase isoform-8 (CesA8) from hybrid aspen (enzyme)”, the stoichiometry N came out at 3.
